Test results from patent US10711248B2, “Device and method for standardizing myoblast differentiation into myotubes” (Cytoo, priority 2013, dated 2020).

B1: Wnt3a: Wnt molecule known to inhibit AChR clustering in mice (protein, UniProt P56704 19-352, looked up)
Protein Wnt-3a: SYPIWWSLAVGPQYSSLGSQPILCASIPGLVPKQLRFCRNYVEIMPSVAEGIKIGIQECQHQFRGRRWNCTTVHDSLAIFGPVLDKATRESAFVHAIASAGVAFAVTRSCAEGTAAICGCSSRHQGSPGKGWKWGGCSEDIEFGGMVSREFADARENRPDARSAMNRHNNEAGRQAIASHMHLKCKCHGLSGSCEVKTCWWSQPDFRAIGDFLKDKYDSASEMVVEKHRESRGWVETLRPRYTYFKVPTERDLVYYEASPNFCEPNPETGSFGTRDRTCNVSSHGIDGCDLLCCGRGHNARAERRREKCRCVFHWCCYVSCQECTRVYDVHTCK
B2: Wnt4: Wnt molecule known to stimulate AChR clustering in mice (protein, UniProt P56705 23-351, looked up)
Protein Wnt-4: SNWLYLAKLSSVGSISEEETCEKLKGLIQRQVQMCKRNLEVMDSVRRGAQLAIEECQYQFRNRRWNCSTLDSLPVFGKVVTQGTREAAFVYAISSAGVAFAVTRACSSGELEKCGCDRTVHGVSPQGFQWSGCSDNIAYGVAFSQSFVDVRERSKGASSSRALMNLHNNEAGRKAILTHMRVECKCHGVSGSCEVKTCWRAVPPFRQVGHALKEKFDGATEVEPRRVGSSRALVPRNAQFKPHTDEDLVYLEPSPDFCEQDMRSGVLGTRGRTCNKTSKAIDGCELLCCGRGFHTAQVELAERCSCKFHWCCFVKCRQCQRLVELHTCR

system: acetylcholine receptors (AChR) clustering in myotubes derived from human primary cells; assay: Acetylcholine receptor clustering in primary human myotubes cultured on micropatterns (TMR-Bungarotoxin probe); format: cell-based; settings: FIG. 8A/8B
Protocol: FIG. 8B is a quantification of the regulation of cluster formation through agrin and Wnt signaling;
C2C12 mouse or primary human myoblasts (HSMM, Lonza) were cultured on fibronectin coated micropatterns within growth medium (DMEM, 20% FBS, 0.5% P/S, or Lonza SkGM™-2 cell culture Kit respectively) during 24 hours. Then both cell types were cultured within differentiation medium (DMEM/F12, 2% Horse Serum, 0.5% P/S) during 5 to 11 days for HSMM and C2C12 respectively. Differentiation medium were changed every 2 days. Cells were fixed and an immunostaining was realized against myosin heavy chain (in green in a color image—in light grey in the appended black&white figures), actin (in red in a color image—in medium grey in the appended black&white figures) and nuclei (in blue in a color image—in dark grey in the appended black&white figures). Images were acquired using an epifluorescence microscope (DMI6000, Leica).

Molecule	Effect on AChR clustering / cluster formation
agrin: treatment inducing acetylcholine receptor clustering in myotubes [reference compound]	large clustering
B1	inhibit
B2	stimulate
